Consider 18 variants from the supplement of paper PMC7125110.

First the molecules themselves.
B1: glmS ribozyme (parent)
chain: AUAAAAGCGCCAGAACUACAGAAAUGUAGUUGACGAGGAGGAGGUUUAUCGAAUUUUCGGCGGAUGCCUCCAAA

Holding throughout (settings): with glucosamine-6-phosphate
Variants of B1 are the subject of data set [1]. Kind of data set: kcat; higher = faster cleavage; RNA array. The method, boiled down: (§1)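 Glucosamine-6-phosphate, from 40 μM to 10 mM in HEPES/KCl/Mg(OAc)2 buffer, was flowed over sequenced MiSeq chips carrying barcoded ribozyme variants transcribed in situ by E. coli RNA polymerase. A hybridised Cy3 probe tracked the variants at 37 °C as tiles were imaged over ~14 h. kobs, kcat and KM were obtained by fitting normalised per-tile medians to exponential decays and then applying weighted Michaelis–Menten fits across concentrations.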

The variants in data set [2] derive from B1. Kind of data set: KM; higher = weaker cofactor use; RNA array. The method, boiled down:
as §1

The variants in data set [3] derive from B1. Kind of data set: self-cleavage kobs at 40 uM GlcN6P; higher = faster cleavage; RNA array. The procedure, abridged:
as §1

Data set [4] covers variants of B1. Kind of data set: self-cleavage kobs at 160 uM GlcN6P; higher = faster cleavage; RNA array. The procedure, abridged:
as §1

Variants of B1 are the subject of data set [5]. As to the kind of experiment: self-cleavage kobs at 640 uM GlcN6P; higher = faster cleavage; RNA array. The procedure, abridged:
as §1

Data set [6] covers variants of B1. As to the kind of experiment: self-cleavage kobs at 2500 uM GlcN6P; higher = faster cleavage; RNA array. The procedure, abridged: as §1
Variants of B1 are the subject of data set [7]. As to the kind of experiment: self-cleavage kobs at 10000 uM GlcN6P; higher = faster cleavage; RNA array. The method, boiled down: as §1

± gives the standard error. For some of these results: This sample holds only a part of the variants without activity.

As to C68U, the kcat – broadly, the number of substrate molecules converted per active site and unit of time at saturation – with glucosamine-6-phosphate [1] was 0.00795 ± 0.003 s⁻¹. In the data set with glucosamine-6-phosphate [2], the KM (usually the concentration of substrate that gives half-maximal velocity) came out at 2930 ± 1200 µM. In addition, in the data set with glucosamine-6-phosphate [3], the “self-cleavage kobs at 40 uM GlcN6P” value was 0.000113 ± 1.6e-06 s⁻¹. Also, in the data set with glucosamine-6-phosphate [4], the “self-cleavage kobs at 160 uM GlcN6P” value stood at 0.000316 ± 1.2e-05 s⁻¹. In the data set with glucosamine-6-phosphate [5], the “self-cleavage kobs at 640 uM GlcN6P” value was 0.0015 ± 6.4e-05 s⁻¹. In addition, the “self-cleavage kobs at 2500 uM GlcN6P” value in the data set with glucosamine-6-phosphate [6] amounted to 0.00371 ± 0.00012 s⁻¹.

As for C16A C58A, in the data set with glucosamine-6-phosphate [1], the kcat was 0.000107 ± 7.2e-06 s⁻¹. For the same variant, the KM with glucosamine-6-phosphate [2] turned out to be 1510 ± 430 µM. In the data set with glucosamine-6-phosphate [6], the “self-cleavage kobs at 2500 uM GlcN6P” value came to 7.24e-05 ± 1.4e-05 s⁻¹. Further, in the data set with glucosamine-6-phosphate [7], the “self-cleavage kobs at 10000 uM GlcN6P” value worked out at 9.21e-05 ± 1.1e-05 s⁻¹.

In the case of C16G A64C, the kcat with glucosamine-6-phosphate [1] is 2.1e-05 ± 1.7e-06 s⁻¹. Besides, the KM in the data set with glucosamine-6-phosphate [2] is 9060 ± 1500 µM.

For U49C A53U, the kcat with glucosamine-6-phosphate [1] was less than 1e-05 s⁻¹.

As for G9U C50G, in the data set with glucosamine-6-phosphate [1], the kcat amounted to 2.48e-05 ± 1.1e-05 s⁻¹.

On to G9U C61A, for which the kcat in the data set with glucosamine-6-phosphate [1] amounted to 0.00139 ± 0.00021 s⁻¹. In addition, the KM in the data set with glucosamine-6-phosphate [2] worked out at 1500 ± 360 µM. The “self-cleavage kobs at 40 uM GlcN6P” value in the data set with glucosamine-6-phosphate [3] is 4.72e-05 ± 9.6e-06 s⁻¹. Also, in the data set with glucosamine-6-phosphate [4], the “self-cleavage kobs at 160 uM GlcN6P” value was determined as 0.00013 ± 2.7e-05 s⁻¹. Besides, in the data set with glucosamine-6-phosphate [5], the “self-cleavage kobs at 640 uM GlcN6P” value is 0.000373 ± 5.1e-05 s⁻¹. For the same variant, the “self-cleavage kobs at 2500 uM GlcN6P” value with glucosamine-6-phosphate [6] came out at 0.000927 ± 0.00013 s⁻¹. Also, in the data set with glucosamine-6-phosphate [7], the “self-cleavage kobs at 10000 uM GlcN6P” value is 0.00121 ± 0.00023 s⁻¹.

For the variant A33C A39G, the kcat with glucosamine-6-phosphate [1] was 0.0011 ± 0.0002 s⁻¹. Besides, the KM with glucosamine-6-phosphate [2] is 5030 ± 1400 µM. Besides, the “self-cleavage kobs at 640 uM GlcN6P” value with glucosamine-6-phosphate [5] worked out at 0.000138 ± 1.9e-05 s⁻¹. Further, the “self-cleavage kobs at 2500 uM GlcN6P” value in the data set with glucosamine-6-phosphate [6] worked out at 0.000373 ± 9.9e-05 s⁻¹. In addition, in the data set with glucosamine-6-phosphate [7], the “self-cleavage kobs at 10000 uM GlcN6P” value was found to be 0.000722 ± 8.1e-05 s⁻¹.

For the variant A12C U54G, in the data set with glucosamine-6-phosphate [1], the kcat amounted to 0.0218 ± 0.01 s⁻¹. Moreover, the “self-cleavage kobs at 40 uM GlcN6P” value with glucosamine-6-phosphate [3] came out at 0.000492 ± 7.4e-05 s⁻¹. For the same variant, the “self-cleavage kobs at 160 uM GlcN6P” value with glucosamine-6-phosphate [4] worked out at 0.0011 ± 0.00016 s⁻¹. Further, the “self-cleavage kobs at 640 uM GlcN6P” value in the data set with glucosamine-6-phosphate [5] amounted to 0.00452 ± 0.00083 s⁻¹. Also, the “self-cleavage kobs at 2500 uM GlcN6P” value with glucosamine-6-phosphate [6] came out at 0.0102 ± 0.0016 s⁻¹. Besides, the “self-cleavage kobs at 10000 uM GlcN6P” value with glucosamine-6-phosphate [7] came out at 0.0271 ± 0.0095 s⁻¹.

Turning to G40C A48U, in the data set with glucosamine-6-phosphate [1], the kcat was determined as 0.000238 ± 7.3e-05 s⁻¹. The “self-cleavage kobs at 40 uM GlcN6P” value in the data set with glucosamine-6-phosphate [3] was less than 1e-05 s⁻¹. Further, the “self-cleavage kobs at 160 uM GlcN6P” value with glucosamine-6-phosphate [4] is less than 1e-05 s⁻¹. Moreover, the “self-cleavage kobs at 10000 uM GlcN6P” value in the data set with glucosamine-6-phosphate [7] is 5.01e-05 ± 8.4e-06 s⁻¹.

Consider G13A C16G, for which the kcat in the data set with glucosamine-6-phosphate [1] was found to be 0.000217 ± 1.4e-05 s⁻¹. The KM in the data set with glucosamine-6-phosphate [2] amounted to 1970 ± 290 µM. In addition, in the data set with glucosamine-6-phosphate [5], the “self-cleavage kobs at 640 uM GlcN6P” value is 5.02e-05 ± 1.2e-05 s⁻¹. For the same variant, the “self-cleavage kobs at 2500 uM GlcN6P” value in the data set with glucosamine-6-phosphate [6] was found to be 0.000131 ± 2.4e-05 s⁻¹. Also, in the data set with glucosamine-6-phosphate [7], the “self-cleavage kobs at 10000 uM GlcN6P” value stood at 0.000178 ± 2.5e-05 s⁻¹.

Take A12G G13U: the kcat with glucosamine-6-phosphate [1] worked out at 9.52e-05 ± 1e-06 s⁻¹. For the same variant, the KM with glucosamine-6-phosphate [2] turned out to be 1020 ± 43 µM. For the same variant, in the data set with glucosamine-6-phosphate [5], the “self-cleavage kobs at 640 uM GlcN6P” value is 3.63e-05 ± 8.6e-06 s⁻¹. Further, the “self-cleavage kobs at 2500 uM GlcN6P” value in the data set with glucosamine-6-phosphate [6] was 6.89e-05 ± 1.1e-05 s⁻¹. In the data set with glucosamine-6-phosphate [7], the “self-cleavage kobs at 10000 uM GlcN6P” value came to 8.62e-05 ± 7.6e-06 s⁻¹.

Consider G44C A53C, for which the kcat in the data set with glucosamine-6-phosphate [1] stood at 6.93e-05 ± 2.5e-06 s⁻¹. In addition, the KM with glucosamine-6-phosphate [2] amounted to 2650 ± 300 µM. Moreover, the “self-cleavage kobs at 2500 uM GlcN6P” value in the data set with glucosamine-6-phosphate [6] turned out to be 3.4e-05 ± 1e-05 s⁻¹. Moreover, the “self-cleavage kobs at 10000 uM GlcN6P” value with glucosamine-6-phosphate [7] was 5.46e-05 ± 9.3e-06 s⁻¹.

As for C10A U65G, the kcat in the data set with glucosamine-6-phosphate [1] is less than 1e-05 s⁻¹. Besides, the “self-cleavage kobs at 40 uM GlcN6P” value with glucosamine-6-phosphate [3] was less than 1e-05 s⁻¹. The “self-cleavage kobs at 640 uM GlcN6P” value with glucosamine-6-phosphate [5] is less than 1e-05 s⁻¹. The “self-cleavage kobs at 2500 uM GlcN6P” value with glucosamine-6-phosphate [6] was less than 1e-05 s⁻¹. Besides, in the data set with glucosamine-6-phosphate [7], the “self-cleavage kobs at 10000 uM GlcN6P” value is less than 1e-05 s⁻¹.

As for A15U U49C, the kcat with glucosamine-6-phosphate [1] was less than 1e-05 s⁻¹. For the same variant, the “self-cleavage kobs at 40 uM GlcN6P” value in the data set with glucosamine-6-phosphate [3] was less than 1e-05 s⁻¹. The “self-cleavage kobs at 640 uM GlcN6P” value with glucosamine-6-phosphate [5] was less than 1e-05 s⁻¹. The “self-cleavage kobs at 10000 uM GlcN6P” value with glucosamine-6-phosphate [7] was less than 1e-05 s⁻¹.

Regarding U49C U69G, the turnover number (kcat) with glucosamine-6-phosphate [1] was 1.6e-05 ± 5e-06 s⁻¹.

For U31C A52G, the kcat with glucosamine-6-phosphate [1] amounted to 0.000531 ± 5.8e-05 s⁻¹. Further, in the data set with glucosamine-6-phosphate [2], the KM worked out at 4640 ± 810 µM. For the same variant, the “self-cleavage kobs at 160 uM GlcN6P” value with glucosamine-6-phosphate [4] came out at 2.13e-05 ± 8.7e-06 s⁻¹. Besides, the “self-cleavage kobs at 640 uM GlcN6P” value with glucosamine-6-phosphate [5] worked out at 6.14e-05 ± 7.4e-06 s⁻¹. Further, in the data set with glucosamine-6-phosphate [6], the “self-cleavage kobs at 2500 uM GlcN6P” value worked out at 0.000196 ± 2.2e-05 s⁻¹. Also, the “self-cleavage kobs at 10000 uM GlcN6P” value with glucosamine-6-phosphate [7] was determined as 0.000358 ± 3.4e-05 s⁻¹.

In the case of A39U C68U, in the data set with glucosamine-6-phosphate [1], the kcat is 0.00901 ± 0.0018 s⁻¹. Also, the KM in the data set with glucosamine-6-phosphate [2] was 1340 ± 420 µM. For the same variant, the “self-cleavage kobs at 40 uM GlcN6P” value with glucosamine-6-phosphate [3] came to 0.000444 ± 8.6e-05 s⁻¹. In addition, in the data set with glucosamine-6-phosphate [4], the “self-cleavage kobs at 160 uM GlcN6P” value was found to be 0.000829 ± 9e-05 s⁻¹. Also, the “self-cleavage kobs at 640 uM GlcN6P” value with glucosamine-6-phosphate [5] was 0.00309 ± 0.00026 s⁻¹. Also, the “self-cleavage kobs at 2500 uM GlcN6P” value with glucosamine-6-phosphate [6] was 0.00636 ± 0.00063 s⁻¹. The “self-cleavage kobs at 10000 uM GlcN6P” value with glucosamine-6-phosphate [7] amounted to 0.00694 ± 0.0011 s⁻¹.

A33U G51A: the kcat in the data set with glucosamine-6-phosphate [1] was less than 1e-05 s⁻¹. Moreover, in the data set with glucosamine-6-phosphate [2], the KM worked out at 394 ± 130 µM. Further, the “self-cleavage kobs at 40 uM GlcN6P” value with glucosamine-6-phosphate [3] is less than 1e-05 s⁻¹.
